Patent publication US20210009693A1 (MABSPACE BIOSCIENCES SUZHOU, published 2021)
Where two headings read alike, the source gives them in different places. Values belong to the binder of their own block, whether it stands above or below them.

Key:
[1] = target: T1, Recombinant Human PD-L1/CD274 Protein (hPD-L1-his) (human, UniProt Q9NZQ7 19-238); assay: ELISA on coated hPD-L1-his
T1 construct: range 19-238; ACRO Biosystem PD1-H5229, made in HEK293; also called human PD-L1-his; hPD-L-his

[2] = target: T2, human PD-L1 expressed on cells (human, UniProt Q9NZQ7 19-290); assay: FACS, IFN-gamma stimulated HCC827 cells
T2 construct: whole, on cells; also called hPD-L1 expressed on HCC827; hPD-L1 on MC38/hPD-L1 cells
T2 sequence (Q9NZQ7 19-290): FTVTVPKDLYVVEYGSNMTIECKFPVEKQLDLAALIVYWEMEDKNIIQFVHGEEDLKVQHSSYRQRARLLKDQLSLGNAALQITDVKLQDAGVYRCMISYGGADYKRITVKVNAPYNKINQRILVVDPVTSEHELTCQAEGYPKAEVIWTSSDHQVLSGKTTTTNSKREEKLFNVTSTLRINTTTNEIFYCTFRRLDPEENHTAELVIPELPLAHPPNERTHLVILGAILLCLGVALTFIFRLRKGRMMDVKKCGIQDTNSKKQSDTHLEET
Protocol: Log phase IFN-γ stimulated (500U/ml for 2 days) HCC827 cells were collected and resuspended in blocking buffer (5% BSA+PBS). 2×10\hat{ }5 cells were added to each tube and then washed once with PBS (1500 rpm, 5 mins, RT). The 100 μl/tube serial diluted biotinylated PD-L1 antibodies with blocking buffer were added into corresponding tubes and incubate at 4° C. for 1 hr.

[3] = target: T1, Recombinant Human PD-L1/CD274 Protein …; assay: ELISA on coated hPD-L1-his; bound at pH7.4, then 2 h at pH5.5
[4] = target: T1, Recombinant Human PD-L1/CD274 Protein …; assay: ELISA on coated hPD-L1-his; bound at pH7.4, then 2 h at pH7.4
[5] = target: T2, human PD-L1 expressed on cells; assay: blocking FACS on HCC827 cells; blocked ligand: biotinylated hPD-1-N297A
Protocol: Log phase IFN-γ stimulated (500U/ml for 2 days) HCC827 cells were collected and resuspended in blocking buffer (5% BSA+PBS). 2×10\hat{ }5 cells were added to each tube and then washed once with PBS (1500 rpm, 5 mins, RT). The 100 μl/tube serial diluted PD-L1 antibodies (see FIG. 8) with blocking buffer were added into corresponding tubes and incubate at 4° C. for 1 hr. […] After washing for three times with PBS, 100 μl/tube streptavidin-PE 1:200 (EBiosciences) in blocking buffer was added to each tube. The cells were incubated at 4° C. for 1 hr and then washed twice with PBS, followed by resuspending cells in 150 μl PBS for each sample. The cells were then transferred into FACS tube and the binding of the antibodies to the cells were detected with flow cytometry (ACEA Bioscience Novocyte).

[6] = target: T3, Human PD-L1/CD274 with C-Fc Tag (hPD-L1-Fc) (human, UniProt Q9NZQ7 19-238); assay: blocking ELISA on coated hPD-L1-Fc; blocked ligand: biotinylated hPD-1-N297A
T3 construct: range 19-238; ACRO Biosystem PD1-H5258, made in HEK293; also called human PD-L1-Fc; not shown: Fc fragment of human IgG1 at C-terminus
T3 sequence (Q9NZQ7 19-238 limits assumed): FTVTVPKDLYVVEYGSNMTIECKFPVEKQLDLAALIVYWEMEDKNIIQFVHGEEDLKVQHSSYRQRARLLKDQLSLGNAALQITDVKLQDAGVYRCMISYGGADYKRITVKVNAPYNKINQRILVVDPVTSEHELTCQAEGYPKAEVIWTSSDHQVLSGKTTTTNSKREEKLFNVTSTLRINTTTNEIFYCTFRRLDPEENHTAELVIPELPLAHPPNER

[7] = target: T4, hPD-L2-Fc (human, UniProt Q9BQ51 20-219); assay: ELISA, plate coated with hPD-L2-Fc
T4 construct: Acrobiosystems PD2-H5251; also called human PD-L2 protein; not shown: Fc tag
T4 sequence (looked up): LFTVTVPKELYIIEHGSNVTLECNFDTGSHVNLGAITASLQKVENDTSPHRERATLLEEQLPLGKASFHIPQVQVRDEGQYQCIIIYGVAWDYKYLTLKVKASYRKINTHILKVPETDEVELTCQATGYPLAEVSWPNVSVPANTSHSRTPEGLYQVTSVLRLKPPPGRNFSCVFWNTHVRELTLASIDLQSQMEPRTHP

[8] = target: T5, wild type human PD-L1-Fc protein (SEQ ID NO: 107) (human); assay: ELISA on captured PD-L1-Fc, as in Example 18A
T5 construct: Extracellular human PD-L1 (amino acid 19-238) with Fc fragment of human IgG1, expressed in 293T cells and used as culture supernatant; also called WT PD-L1; wild-type PD-L1
T5 sequence (chain, as listed by the source limits assumed): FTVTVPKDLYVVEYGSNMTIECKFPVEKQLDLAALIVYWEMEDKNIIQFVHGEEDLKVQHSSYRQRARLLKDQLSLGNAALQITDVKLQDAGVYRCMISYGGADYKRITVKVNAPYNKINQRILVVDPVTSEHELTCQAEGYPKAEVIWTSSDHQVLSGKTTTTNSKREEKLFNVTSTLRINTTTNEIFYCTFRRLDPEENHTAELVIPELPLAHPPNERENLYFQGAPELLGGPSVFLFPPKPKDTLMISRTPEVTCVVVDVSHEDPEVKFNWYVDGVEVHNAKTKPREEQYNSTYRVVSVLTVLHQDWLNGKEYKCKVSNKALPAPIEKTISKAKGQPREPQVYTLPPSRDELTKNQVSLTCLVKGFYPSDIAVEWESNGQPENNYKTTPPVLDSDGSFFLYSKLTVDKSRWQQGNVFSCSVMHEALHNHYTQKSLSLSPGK

[9] = target: T6, human PD-L1-Fc mutant E58A (human); assay: ELISA on captured PD-L1-Fc, as in Example 18A
T6 construct: Position 58 counts on native human PD-L1 (NP_054862.1); also called E58A mutant
T6 sequence (chain, as listed by the source E58A E58A limits assumed): as the sequence (chain, as listed by the source limits assumed) above, with E40A counted along it

[10] = target: T2, human PD-L1 expressed on cells; assay: FACS, IFN-gamma stimulated HCC827 cells; remark: listed apart in the source
Protocol: Log phase IFN-γ stimulated (500U/ml for 2 days) HCC827 cells were collected and resuspended in blocking buffer (5% BSA+PBS). 2×10\hat{ }5 cells were added to each tube and then washed once with PBS (1500 rpm, 5 mins, RT). The 100 μl/tube serial diluted PD-L1 antibodies purified from hybridoma supernatant in blocking buffer were added into corresponding tubes and were incubated at 4° C. for 1 hr. The cells were then washed twice with 1 ml PBS, followed by adding 100 μl/tube of 2nd antibody (1:400 anti-mIgG (H+L)-PE, Cell signaling) in blocking buffer. The cells were incubated at 4° C. for 1 hr and then washed twice with PBS, followed by resuspending cells in 150 μl PBS for each sample. The cells were then transferred into FACS tube and the bindings of the antibodies to the cells were detected using flow cytometry (BD Accuri C6) (see FIG. 5A).

[11] = target: T1, Recombinant Human PD-L1/CD274 Protein …; assay: ELISA, purified mouse antibody on coated hPD-L1-his
Protocol: High-binding clear polystyrene 96 well plates (Nunc) were coated with 100 μl/well of a 0.5 μg/ml hPD-L1-his in high pH coating buffer and incubated overnight 4° C. Then plates were washed once on an automatic plate washer using washing buffer (PBS+0.1% Tween 20 (Sigma)). 200 μl of blocking buffer (PBS+1% BSA+1% normal goat serum+0.05% Tween-20) was added to each well and incubated 2 hours at room temp. Then add serially diluted purified antibodies with dilution buffer (PBS+1% BSA+1% normal goat serum+0.01% Tween-20) and incubate for 1 hour at RT. The plates were then washed 3 times using the method described above. 100 μl/well of a solution of HRP conjugated goat anti-mouse Fc antibody (Abcam) in dilution buffer was then added to each well of the plate. After that the ELISA plates were allowed to incubate for 60 min at RT then plates were washed 3 times with 250 μl/well washing buffer. Finally, 100 μl/well of TMB was added to each well and was terminated using 0.64M H₂SO₄. The plates were read on a Thermo Multiscan FC at 450 nM (see FIG. 3).

[12] = target: T2, human PD-L1 expressed on cells; assay: blocking FACS on HCC827 cells; blocked ligand: biotinylated hPD-1-N297A; remark: listed apart in the source
Protocol: Log phase IFN-γ stimulated (500U/ml for 2 days) HCC827 cells were collected and resuspended in blocking buffer (5% BSA+PBS). 2×10\hat{ }5 cells were added to each tube and then washed once with PBS (1500 rpm, 5 mins, RT). […] The cells were incubated at 4° C. for 1 hr and then washed twice with PBS, followed by resuspending cells in 150 μl PBS for each sample.

[13] = target: T7, Recombinant Mouse PD-L1/CD274 Protein (mPD-L1-his) (mouse, UniProt Q9EP73 19-238); assay: ELISA, 20 ug/ml antibody on coated mouse PD-L1 (his-tagged per text, mPD-L1-Fc per sheet title)
T7 construct: range 19-238; ACRO Biosystem PD1-M5220; also called mouse PD-L1-his
T7 sequence (Q9EP73 other isoform, or with tags, fused parts or gaps limits assumed): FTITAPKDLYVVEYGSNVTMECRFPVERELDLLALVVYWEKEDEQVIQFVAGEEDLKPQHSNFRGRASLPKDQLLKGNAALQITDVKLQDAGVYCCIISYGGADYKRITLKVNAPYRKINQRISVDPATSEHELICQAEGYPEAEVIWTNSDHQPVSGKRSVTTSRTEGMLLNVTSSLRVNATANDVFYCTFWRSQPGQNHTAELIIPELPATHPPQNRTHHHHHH
In short: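 Wells coated overnight at 4 °C with 1 μg/ml mouse PD-L1-his, blocked 2 h with BSA/goat serum buffer; purified hybridoma mouse antibodies at 20 μg/ml bound 1 h at RT. Detection by HRP goat anti-mouse Fc (60 min, RT), TMB, acid stop, absorbance at 450 nm.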

[14] = target: T7, Recombinant Mouse PD-L1/CD274 Protein …; assay: ELISA, plate coated with mouse PD-L1-his
[15] = target: T1, Recombinant Human PD-L1/CD274 Protein …; assay: ELISA on coated human PD-L1-his
Protocol: (§1) High-binding clear polystyrene 96-well plates (Nunc) were coated with 100 μl/well of a 0.5 μg/ml human or cynomolgus (cyno) PD-L1-his in high pH coating buffer and incubated overnight at 4° C. Then plates were washed once on an automatic plate washer using washing buffer (PBS+0.1% Tween 20 (Sigma)). 200 μl of blocking buffer (PBS+1% BSA+1% normal goat serum+0.05% Tween-20) was added to each well and incubated for 2 hours at room temperature. Then add serial diluted antibodies with dilution buffer (PBS+1% BSA+1% normal goat serum+0.01% Tween-20) and incubated for 1 hour at RT. The plates were then washed 3 times using the method described above. […] After that the ELISA plates were allowed to incubate for 60 min at RT then plates were washed 3 times with 250 μl/well washing buffer. Finally, 100 μl/well of TMB was added to each well and the reaction was terminated using 0.64M H₂SO₄. The plates were read on a Thermo Multiscan FC at 450 nM (see FIG. 6A to 6E).

[16] = target: T8, Cynomolgus PD-L1/CD274 with His tag (cPD-L1-His) (cynomolgus); assay: ELISA on coated cynomolgus PD-L1-his
T8 construct: range 19-238; ACRO Biosystem PD1-C52H4; also called cynomolgus (cyno) PD-L1-his; cynomolgis PD-L1-his
Protocol: as §1

[17] = target: T1, Recombinant Human PD-L1/CD274 Protein …; assay: ELISA on coated hPD-L1-his; bound at pH7.4, then 2 h at pH5.5; remark: listed apart in the source
[18] = target: T1, Recombinant Human PD-L1/CD274 Protein …; assay: ELISA on coated hPD-L1-his; bound at pH7.4, then 2 h at pH7.4; remark: listed apart in the source

T1 sequence (Q9NZQ7 other isoform, or with tags, fused parts or gaps limits assumed): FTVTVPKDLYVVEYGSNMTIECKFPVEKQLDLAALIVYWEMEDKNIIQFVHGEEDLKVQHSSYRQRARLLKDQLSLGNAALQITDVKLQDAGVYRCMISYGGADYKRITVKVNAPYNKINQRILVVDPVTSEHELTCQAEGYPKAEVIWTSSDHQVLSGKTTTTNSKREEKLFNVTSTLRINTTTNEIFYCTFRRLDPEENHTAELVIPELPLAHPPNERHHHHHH

EC50 (read off the curve) [1]: ~0.004 µg/mL | EC50 (read off the curve) [2]: ~0.04 µg/mL | EC50 (read off the curve) [3]: ~0.03 µg/mL | EC50 (read off the curve) [4]: ~0.02 µg/mL | IC50 (read off the curve) [5]: ~0.04 µg/mL | IC50 (read off the curve) [6]: ~0.05 µg/mL
B1: 23F11-C (antibody, V domains shown)
VH: QVQLQQPGAELVKPGASVKLSCKASGYSFTTYWMHWVKQRPGQGLEWIGMIQPNSGGTKYNEKFKKKATLTVDKSSTTASMELSSLTSEDSAVYYCARGAGTVDYFDYWGQGSTLTVSS
VL: DIVLTHSPVSLAVSLGQRATISCRASESVDIYGNSFMHWYQQKPGQPPKLLIYRASNLESGIPARFSGSGSRTDFTLTINPVEADDVATYYCQQSTEDPYTFGGGTKLEIK
notes: Mouse variable regions fused to a human IgG1 constant region; also called 23F11-chimeric; chimeric antibody 23F11

binding result [7]: no binding (tested: 2 ug/ml) | Mean OD450 [8]: 1.92 OD450 | OD450 nM of sample-1 [8]: 1.9 OD450 | OD450 nM of sample-2 [8]: 1.94 OD450 | % of binding of Ab to E58A mutant vs. that to WT PD-L1 [9]: 17.2% | Mean OD450 [9]: 0.33 OD450 | OD450 nM of sample-1 [9]: 0.35 OD450 | OD450 nM of sample-2 [9]: 0.309 OD450 | EC50 (read off the curve) [10]: ~0.1 µg/mL | EC50 (read off the curve) [11]: ~0.08 µg/mL | IC50 (read off the curve) [12]: ~0.2 µg/mL | binding result [13]: no binding (tested: 20 ug/ml)
B2: 22C9 (antibody, V domains shown)
VH: QVQLQQSGAELVKPGASVKLSCKASGYTFTSYWMHWVWQRPGQGLEWIGMIHPNSDITNCNENFKHTVTLTVDKSSSTAYMQLSSLTSEDSAVFYCARSDGSSYWYFDVWGTGTTVTVSS
VL: SIVMTQTPKFLSVSAGDRVTITCKAGQSVNNDVAWYQQKPGQSPKLLIYYASNRYTGVPDRFTGSGYGTDFTFTISTVQAEDLAVYFCQQDFSSPLTFGAGTKLELK
notes: Mouse monoclonal from hybridoma; also called mouse monoclonal antibody 22C9

binding result [14]: no binding (tested: 20 ug/ml) | EC50 (read off the curve) [15]: ~0.01 µg/mL | EC50 (read off the curve) [16]: ~0.01 µg/mL | EC50 (read off the curve) [17]: ~0.02 µg/mL | EC50 (read off the curve) [18]: ~0.01 µg/mL
B3: 4B6-C (antibody, V domains shown)
VH: EVQLQQSGPELVKPGASVKISCKASGYVFTDYYMNWVKQSHGKSLEWIGDINPNNGGTSYNHKFKGKATVTVDKSSRTAYMELLSLTSEDSAVYYCVKWGDGPFAYWGQGTLVTVSA
VL: DIVMTQSQKFMSTSVGDRVSITCKASQNVGAAVAWYQQKPGQSPKLLIYSASNRYTGVPDRFTGSGSGTDFTLTISNMQSEDLADYFCQQYSNYPTFGSGTKLGIK
notes: Mouse variable regions fused to a human IgG1 constant region; also called 4B6-chimeric; chimeric antibody 4B6
